Measurements published in patent publication US10655124B2, “Proximity based methods for selection of binding partners” (THE SCRIPPS RESEARCH INSTITUTE, priority 2014, dated 2020).

Experiments:
GLP1R = target: T1, GLP1R (Homo sapiens, UniProt P43220); assay: Proximity based reaction assay, GLP1R constructions, tdTomato reporter, fluorescent microscopy; format: cell-based
T1 construct: Four TEV cleavage sites that are cleaved with varying efficiency were used for the GLP1R (1-426) constructions; expressed in transfected cells
T1 sequence (P43220 24-426, species assumed): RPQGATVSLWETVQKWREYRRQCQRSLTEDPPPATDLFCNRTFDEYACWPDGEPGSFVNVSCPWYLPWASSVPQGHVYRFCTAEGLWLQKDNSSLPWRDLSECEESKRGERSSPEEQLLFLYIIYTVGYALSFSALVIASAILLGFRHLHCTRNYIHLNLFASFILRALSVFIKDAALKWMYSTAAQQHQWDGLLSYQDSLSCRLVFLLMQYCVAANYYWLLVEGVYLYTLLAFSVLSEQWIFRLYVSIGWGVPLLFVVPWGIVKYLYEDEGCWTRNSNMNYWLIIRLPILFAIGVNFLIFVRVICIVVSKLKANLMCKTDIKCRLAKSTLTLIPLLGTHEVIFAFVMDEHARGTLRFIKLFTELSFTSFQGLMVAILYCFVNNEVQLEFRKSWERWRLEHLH
Description: Stable cell lines containing the tdTomato reporter gene under control of UAS and GLP1R constructions with different TEV cleavage sites were studied.

[1] = target: glucagon-like peptide 1 receptor (GLP1R) (Homo sapiens, UniProt P43220); assay: Proximity based reaction assay, GLP1R-TEV cleavage site-transcription factor cell line, luciferase reporter; settings: for S/N ratio and noise with different TEV cleavage sites: GLP1R (1-426) constructions, Exendin-4 ligand, 1-3 days post infection
glucagon-like peptide 1 receptor (GLP1R) (Homo sapiens, UniProt P43220), sequence (P43220 24-426): as the sequence (P43220 24-426, species assumed) above

CXCR4 = CXCR4 (Homo sapiens, UniProt P61073); assay: Proximity based reaction assay with irrelevant receptor CXCR4 replacing GLP1R; format: cell-based; settings: irrelevant G protein-coupled receptor control
CXCR4, sequence (P61073 whole entry, species assumed): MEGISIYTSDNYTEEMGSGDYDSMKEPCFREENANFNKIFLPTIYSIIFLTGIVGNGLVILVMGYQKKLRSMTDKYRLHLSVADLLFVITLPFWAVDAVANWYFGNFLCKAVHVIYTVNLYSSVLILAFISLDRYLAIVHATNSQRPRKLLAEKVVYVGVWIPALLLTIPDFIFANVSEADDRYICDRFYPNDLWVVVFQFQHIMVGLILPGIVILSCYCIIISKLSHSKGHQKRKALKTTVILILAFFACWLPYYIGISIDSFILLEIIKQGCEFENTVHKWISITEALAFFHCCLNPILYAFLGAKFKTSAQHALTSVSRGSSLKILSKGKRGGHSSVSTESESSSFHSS

[2] = target: T2, Thrombopoietin receptor (TpoR) (Homo sapiens, UniProt P40238); assay: Proximity based reaction assay, TpoR-TEV cleavage site-transcription factor cell line, luciferase reporter
T2 construct: The coding region of TpoR or GLP1R was followed by the TEV protease cleavage site and the GAL4-VP16 transcription factor; expressed in transfected cells
T2 sequence (P40238 26-635): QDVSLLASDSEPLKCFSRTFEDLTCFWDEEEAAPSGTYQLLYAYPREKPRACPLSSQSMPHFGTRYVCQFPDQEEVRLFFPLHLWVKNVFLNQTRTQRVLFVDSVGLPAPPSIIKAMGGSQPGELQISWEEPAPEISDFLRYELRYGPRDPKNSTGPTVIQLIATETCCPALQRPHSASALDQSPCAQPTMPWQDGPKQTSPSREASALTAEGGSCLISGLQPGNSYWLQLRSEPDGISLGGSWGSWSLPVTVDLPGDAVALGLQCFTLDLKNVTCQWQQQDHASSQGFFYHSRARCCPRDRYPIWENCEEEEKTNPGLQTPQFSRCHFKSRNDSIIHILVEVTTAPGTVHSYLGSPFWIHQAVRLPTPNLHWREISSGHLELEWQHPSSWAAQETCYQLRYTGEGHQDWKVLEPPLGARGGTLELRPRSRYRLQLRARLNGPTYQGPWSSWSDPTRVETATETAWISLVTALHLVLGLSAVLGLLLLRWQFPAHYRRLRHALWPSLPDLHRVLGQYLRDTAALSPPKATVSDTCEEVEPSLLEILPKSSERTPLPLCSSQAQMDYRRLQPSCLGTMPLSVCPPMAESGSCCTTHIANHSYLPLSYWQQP
Description: FIG. 2. Proximity based identification of Thrombopoietin receptor (TpoR) activation. Stable cell lines harboring the luciferase reporter gene under control of UAS and TpoR-TEV cleavage site-transcription factor were established. Cells were transduced with lentivirus encoding Thrombopoietin (TPO) or the TpoR binding antibodies 3D9 or 14F12. Genes encoding different linkers including 3, 5, 6, 8, or 10 copies of (GGGGS) (SEQ ID NO:1) or a human IgG1 Fc were placed between the ligand and PDGFR trans-membrane domain. Luciferase activities were measured 2 days post infection. The cell line harboring GLP1R-TEV cleavage site-Transcription factor was used as negative cell control. The reaction was controlled by measuring the luminescence signals from control lentivirus carrying irrelevant antibodies with the same linker type and length.
The stable cell line harboring both the UAS-reporter gene and receptor-cleavage site-transcription factor was plated in a 96 well plate at 20000 cells per well. Cells were infected by lentivirus carrying the ligand-TM-TEV protease at MOI equal to 1. Cells were cultured for 24-72 h before measuring the reporter gene activity. Luciferase activity was determined by using a luciferase assay system (Promega) while expression of tdTomato was observed by fluorescent microscopy.
A similarly constructed irrelevant antibody was used as a negative control. […]

[3] = system: glucagon-like peptide 1 receptor (GLP1R); assay: Proximity based reaction assay, GLP1R-TEV cleavage site-transcription factor cell line, luciferase reporter; settings: orthogonal control for non-specific interactions; membrane displayed ligand

## ENFYFQS (SEQ ID NO:5) [TEV 2]
GLP1R
  background with different TEV cleavage sites, tdTomato reporter: much lower background
[1]
  S/N ratio and noise with different TEV cleavage sites: highest S/N ratio

## ENLFFQS (SEQ ID NO:7) [TEV 4]
[1]
  S/N ratio and noise with different TEV cleavage sites: very high level of noise

## ENLYFQS (SEQ ID NO:4) [TEV1]
[1]
  S/N ratio and noise with different TEV cleavage sites: very high level of noise

## ENLYYQS (SEQ ID NO:6) [TEV 3]
GLP1R
  background with different TEV cleavage sites, tdTomato reporter: much lower background

## Exendin-4
CXCR4
  response when CXCR4 replaced the GLP1R: no response

## Thrombopoietin [TPO]
[2]; ligand displayed at plasma membrane via PDGFR TM-TEV protease, lentivirus, luciferase 2 days post infection
  transcription factor mediated signal relative to the irrelevant antibody control: increased the transcription factor mediated signal
[2]; tandem repeats of GGGGS linker
  effect of linker length between ligand and TM domain on proximity-based signal: generated similar signals
[3]
  signal in cells bearing the wrong receptor (GLP1R-transcription factor fusion cell line): did not increase the signal

## Vc1.1
[1]
  signal to noise (S/N) ratio, non-specific peptide control: even lower S/N
